Laboratory results reported in publication PMC6513899, “The structural basis of translational control by eIF2 phosphorylation” (Nature Communications, 2019).

T1: eIF2Bδ (subunit of eIF2B) (S. cerevisiae, UniProt P12754 1-651)
T1 construct: eIF2B delta subunit, S. cerevisiae; Stood in the assay as a subunit of the eIF2B decamer; also called eIF2B delta; source: S. cerevisiae strains GP5949 and GP7055, purified as part of Flag-eIF2B
T1 sequence: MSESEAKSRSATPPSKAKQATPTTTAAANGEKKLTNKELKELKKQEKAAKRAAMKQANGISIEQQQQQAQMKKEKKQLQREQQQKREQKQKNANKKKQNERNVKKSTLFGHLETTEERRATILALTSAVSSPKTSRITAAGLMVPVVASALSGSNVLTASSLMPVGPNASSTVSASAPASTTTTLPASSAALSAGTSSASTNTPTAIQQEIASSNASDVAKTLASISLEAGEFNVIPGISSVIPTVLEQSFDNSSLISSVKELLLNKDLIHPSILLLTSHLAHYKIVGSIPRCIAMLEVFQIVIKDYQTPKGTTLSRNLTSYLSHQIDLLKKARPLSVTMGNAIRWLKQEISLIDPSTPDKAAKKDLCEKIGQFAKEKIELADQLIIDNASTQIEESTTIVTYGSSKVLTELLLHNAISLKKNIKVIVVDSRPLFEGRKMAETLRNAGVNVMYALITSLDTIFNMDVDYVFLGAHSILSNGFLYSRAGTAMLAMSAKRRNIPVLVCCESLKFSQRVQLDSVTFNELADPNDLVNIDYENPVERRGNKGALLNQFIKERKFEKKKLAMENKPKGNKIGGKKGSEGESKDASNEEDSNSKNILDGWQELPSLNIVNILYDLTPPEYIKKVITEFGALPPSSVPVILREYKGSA

B1: eIF2Bα (subunit of eIF2B) (natural protein, S. cerevisiae)
chain: MSEFNITETYLRFLEEDTEMTMPIAAIEALVTLLRIKTPETAAEMINTIKSSTEELIKSIPNSVSLRAGCDIFMRFVLRNLHLYGDWENCKQHLIENGQLFVSRAKKSRNKIAEIGVDFIADDDIILVHGYSRAVFSLLNHAANKFIRFRCVVTESRPSKQGNQLYTLLEQKGIPVTLIVDSAVGAVIDKVDKVFVGAEGVAESGGIINLVGTYSVGVLAHNARKPFYVVTESHKFVRMFPLSSDDLPMAGPPLDFTRRTDDLEDALRGPTIDYTAQEYITALITDLGVLTPSAVSEELIKMWYD
notes: eIF2B alpha subunit, S. cerevisiae; Stood in the assay as a subunit of the eIF2B decamer; also called eIF2B alpha; source: S. cerevisiae strains GP5949 and GP7055, purified as part of Flag-eIF2B
B2: eIF2Bβ (subunit of eIF2B) (natural protein, S. cerevisiae)
chain: MSSQAFTSVHPNAATSDVNVTIDTFVAKLKRRQVQGSYAIALETLQLLMRFISAARWNHVNDLIEQIRDLGNSLEKAHPTAFSCGNVIRRILAVLRDEVEEDTMSTTVTSTSVAEPLISSMFNLLQKPEQPHQNRKNSSGSSSMKTKTDYRQVAIQGIKDLIDEIKNIDEGIQQIAIDLIHDHEILLTPTPDSKTVLKFLITARERSNRTFTVLVTEGFPNNTKNAHEFAKKLAQHNIETLVVPDSAVFALMSRVGKVIIGTKAVFVNGGTISSNSGVSSVCECAREFRTPVFAVAGLYKLSPLYPFDVEKFVEFGGSQRILPRMDPRKRLDTVNQITDYVPPENIDIYITNVGGFNPSFIYRIAWDNYKQIDVHLDKNKA
notes: eIF2B beta subunit, S. cerevisiae; Stood in the assay as a subunit of the eIF2B decamer; also called eIF2B beta; source: S. cerevisiae strains GP5949 and GP7055, purified as part of Flag-eIF2B

Key:
[1] = target: the molecule itself; assay: cryo-EM structure; eIF2αP/eIF2B complex: six-fold molar excess of eIF2αP added to purified eIF2B (GP5949), fractionated on Superose 6 in 20 mM Tris-HCl, 100 mM KCl, 1 mM TCEP, pH 7.5; core map 3.9 Å, lateral densities 8-18 Å; half-particles classified by localised reconstruction
[2] = target: T1, eIF2Bδ (subunit of eIF2B); assay: as above; conditions: both partners purified

Row | Binder | binding result [1] | binding result [2]
1 | B1 | binds | 
2 | B2 |  | binds
